Reference: patent US20240150440A1 (LUMEN BIOSCIENCE, published 2024)

Legend:
[1] = target: T1, recombinant SARS-CoV-2 RBD with C-terminal AviTag (SARS-CoV-2, UniProt P0DTC2 319-541); experiment: BLI, biotinylated RBD on streptavidin biosensors [Cont. 2]
[2] = target: T2, SARS-CoV-2 spike protein on pseudotyped lentivirus (Wuhan Reference Pseudovirus) (SARS-CoV-2, UniProt P0DTC2 14-1273); experiment: cell-based or functional assay
[3] = target: T1, recombinant SARS-CoV-2 RBD with …; experiment: ELISA, competition with coated ACE2-Fc for RBD [Cont. 2]
[4] = target: T1, recombinant SARS-CoV-2 RBD with …; experiment: BLI, biotinylated RBD on streptavidin biosensors [Cont. 1]
[5] = target: T1, recombinant SARS-CoV-2 RBD with …; experiment: ELISA, competition with coated ACE2-Fc for RBD [Cont. 3]
[6] = target: T1, recombinant SARS-CoV-2 RBD with …; experiment: BLI, biotinylated RBD on streptavidin biosensors; OR: over-range [Cont. 3]
[7] = target: T1, recombinant SARS-CoV-2 RBD with …; experiment: BLI, biotinylated RBD on streptavidin biosensors; BLD: below limit of detection
[8] = target: T1, recombinant SARS-CoV-2 RBD with …; experiment: ELISA, competition with coated ACE2-Fc for RBD [Cont. 1]
[9] = target: T2, SARS-CoV-2 spike protein on pseudotyped …; experiment: cell-based or functional assay; remark: listed apart in the source
[10] = target: T1, recombinant SARS-CoV-2 RBD with …; experiment: BLI, biotinylated RBD on streptavidin biosensors [Cont. 3]
[11] = target: T1, recombinant SARS-CoV-2 RBD with …; experiment: BLI, biotinylated RBD on streptavidin biosensors, global 1:1 fit
[12] = target: T1, recombinant SARS-CoV-2 RBD with …; experiment: ELISA, competition with coated ACE2-Fc for RBD [Cont. 5]
[13] = target: T1, recombinant SARS-CoV-2 RBD with …; experiment: BLI, biotinylated RBD on streptavidin biosensors [Cont. 5]
[14] = target: T2, SARS-CoV-2 spike protein on pseudotyped …; experiment: cell-based or functional assay; remark: listed apart in the source
[15] = target: T1, recombinant SARS-CoV-2 RBD with …; experiment: BLI, biotinylated RBD on streptavidin biosensors
[16] = target: T1, recombinant SARS-CoV-2 RBD with …; experiment: ELISA, competition with coated ACE2-Fc for RBD
[17] = target: T2, SARS-CoV-2 spike protein on pseudotyped …; experiment: cell-based or functional assay; remark: listed apart in the source
[18] = target: T1, recombinant SARS-CoV-2 RBD with …; experiment: ELISA, competition with coated human ACE2-FC for RBD-AviTag

B1: PP822 MBP-R5A-E5-H6 (VHH)
VHH: QVQLVESGGGLVQPGGSLRLSCAASGYDFDILRMAWFRQAPGKEREMVAAITSAESVNYEDSVKGRFTISRDNAKNTVYLQMNSLKPEDTAVYYCATYDYTDDYGYASWGQGTQVTVSS
notes: Form: Monomer
**Q.** For B1, which Kd [1] is on record?
**A.** 0.00697 µM

**Q.** What about the “infectivity % under 10 ug/mL VHH treatment” value (from here on “infectivity %”) [2] of the same binder?
**A.** 71.6%

**Q.** And the IC50 [3]?
**A.** 0.183 µM

B2: PP813 MBP-R2E-D2-H6 (VHH)
VHH: QVQLVESGGGLVQPGGSLRLSCAASGHQLSTNATHWFRQAPGKNREFVASIGSGSSSYYADSVKGRFTISRDNAKNTVYLQMNSLKPEDTAVYYCTALGGDELDGMTYDYWGQGTQVTVSS
notes: Form: Monomer
**Q.** How did the “infectivity %” value [2] turn out when B2 was run?
**A.** 75.5%

**Q.** And the Kd [4]?
**A.** 0.1 µM

B3: PP819 MBP-R5A-C5-H6 (VHH)
VHH: QVQLVESGGGLVQPGGSLRLSCAASGDIFSINALHWFRQAPGKQREEVAAITSGGSTGYADSVKGRFTISRDNAKNTVYLQMNSLKPEDTAVYYCAAQQARGGLDSDYWGQGTQVTVSS
notes: Form: Monomer
**Q.** With B3 as the binder, how does the Kd [1] read?
**A.** 0.0421 µM

**Q.** And the “infectivity %” value [2]?
**A.** 54.1%

**Q.** And the IC50 [3]?
**A.** 0.0719 µM

B4: PP828 MBP-R5C-B2-H6 (VHH)
VHH: QVQLVESGGGLVQPGGSLRLSCAASGSIFSLNWVHWFRQAPGKSREGVASINSGGHADYSDSVKGRFTISRDNAKNTVYLQMNSLKPEDTAVYYCAAGPYGAYNFNSWGQGTQVTVSS
notes: Form: Monomer
**Q.** How did the “infectivity %” value [2] turn out when B4 was run?
**A.** 73.4%

**Q.** What about the IC50 [5] of the same binder?
**A.** 0.373 µM

**Q.** What about the Kd [6] of the same binder?
**A.** ~1.37 µM

B5: PP802 MBP-R2A-C5-H6 (VHH)
VHH: QVQLVESGGGLVQPGGSLRLSCAASGTWGNIQYLSWFRQAPGKRREFVAAITPNNGTNYADSVKGRFTISRDNAKNTVYLQMNSLKPEDTAVYYCTAVLWYTTKEGPYDYWGQGTQVTVSS
notes: Form: Monomer
**Q.** B5 was tested. Which “infectivity %” value [2] did it give?
**A.** 87.8%

**Q.** What about the Kd [7] of the same binder?
**A.** ~23 µM

B6: MBP-5HVZ-R2A-C5-H6 (VHH, not shown: large carriers; small tags and cut ends)
VHH: QVQLVESGGGLVQPGGSLRLSCAASGTWGNIQYLSWFRQAPGKRREFVAAITPNNGTNYADSVKGRFTISRDNAKNTVYLQMNSLKPEDTAVYYCTAVLWYTTKEGPYDYWGQGTQVTVSS
**Q.** With B6 as the binder, how does the Kd [7] read?
**A.** ~3.25 µM

B7: dimeric VHH (VHH-5HVZ-MBP) R2C-G6 (VHH)
VHH: QVQLVESGGGLVQPGGSLRLSCAASGSIYKYSDVHWFRQAPGKAREAVALLTGAGTTIYGDSVKGRFTISRDNAKNTVYLQMNSLKPEDTAVYYCAAGQGFKATRTFDSWGQGTQVTVSS
**Q.** What does the source list for B7?
**A.** IC50 [8]: 0.0039 µM; Kd [4]: 0.0357 µM; Pseudovirus inhibition IC50 [Cont. 1] [9]: 0.134 µM

B8: PP826 MBP-R5C-A2-H6 (VHH)
VHH: QVQLVESGGGLVQPGGSLRLSCAASGDIFSKNAMHWVRQAPGKQREFVAGIYSDGSSLYADSVKGRFTISRDNAKNTVYLQMNSLKPEDTAVYYCAALDYSARYRTWGQGTQVTVSS
notes: Form: Monomer
**Q.** Which “infectivity %” value [2] does the source give for B8 here?
**A.** 70.6%

**Q.** What about the Kd [10] of the same binder?
**A.** 0.42 µM

B9: R5D-D4 (competition ELISA sample) (VHH)
VHH: QVQLVESGGGLVQPGGSLRLSCAASGSDFTINAMHWFRQAPGKQREFVATITSTSSTAYRDSVKGRFTISRDNAKNTVYLQMNSLKPEDTAVYYCAAFAVRDADTAGWTARDYWGQGTQVTVSS
**Q.** What does the source list for B9?
**A.** Kd [11]: 0.13 µM; IC50 [12]: 0.0481 µM; Kd [13]: 0.13 µM; Pseudovirus inhibition IC50 [Cont. 5] [14]: 0.166 µM

B10: dimeric VHH (VHH-5HVZ-MBP) R2A-F3 (VHH)
VHH: QVQLVESGGGLVQPGGSLRLSCAASGSITSINWMHWFRQAPGKDREGVASISQTGRGSYADSVKGRFTISRDNAKNTVYLQMNSLKPEDTAVYYCAAASRTGTPYNYWGQGTQVTVSS
**Q.** B10 was tested. Which Kd [11] did it give?
**A.** 0.0057 µM

**Q.** And the Kd [15]?
**A.** 0.00566 µM

**Q.** And the IC50 [16]?
**A.** 0.0016 µM

**Q.** What about the “Pseudovirus inhibition IC50” value [17] of the same binder?
**A.** 0.272 µM

**Q.** What about the “IC50 (read off the curve)” value [18] of the same binder?
**A.** ~0.002 µM
